Source: IntAct's records for PubMed 9722563

B1: Integrin beta-1 (Gallus gallus (Chicken)), P07228 (parent)
chain: MAETNLTLLTWAGILCCLIWSGSAQQGGSDCIKANAKSCGECIQAGPNCGWCKKTDFLQEGEPTSARCDDLAALKSKGCPEQDIENPRGSKRVLEDREVTNRKIGAAEKLKPEAITQIQPQKLVLQLRVGEPQTFSLKFKRAEDYPIDLYYLMDLSYSMKDDLENVKSLGTALMREMEKITSDFRIGFGSFVEKTVMPYISTTPAKLRNPCTGDQNCTSPFSYKNVLSLTSEGNKFNELVGKQHISGNLDSPEGGFDAIMQVAVCGDQIGWRNVTRLLVFSTDAGFHFAGDGKLGGIVLPNDGKCHLENNMYTMSHYYDYPSIAHLVQKLSENNIQTIFAVTEEFQAVYKELKNLIPKSAVGTLSSNSSNVIQLIIDAYNSLSSEVILENSKLPKEVTISYKSYCKNGVNDTQEDGRKCSNISIGDEVRFEINVTANECPKKGQNETIKIKPLGFTEEVEIHLQFICDCLCQSEGEPNSPACHDGNGTFECGACRCNEGRIGRLCECSTDEVNSEDMDAYCRRENSTEICSNNGECICGQCVCKKRENTNEVYSGKYCECDNFNCDRSNGLICGGNGICKCRVCECFPNFTGSACDCSLDTTPCMAGNGQICNGRGTCECGTCNCTDPKFQGPTCEMCQTCLGVCAEHKDCVQCRAFEKGEKKETCSQECMHFNMTRVESRGKLPQPVHPDPLSHCKEKDVGDCWFYFTYSVNSNGEASVHVVETPECPSGPDIIPIVAGVVAGIVLIGLALLLIWKLLMIIHDRREFAKFEKEKMNAKWDTGENPIYKSAVTTVVNPKYEGK

Variants of: B1
Details: with flna_human FLNA

Row | Variant | effect of a mutation on the interaction
1 | N797D | decreasing interaction
2 | N797I | decreasing interaction
3 | P786A | decreasing interaction
4 | Y788E | disrupting interaction
5 | Y788A | disrupting interaction
6 | Y788F | decreasing interaction
7 | D764V | decreasing interaction
8 | N785D | decreasing interaction
